assay: soluble on expression in E. coli; label from the status in PepcDB or PDB records

Sequence | soluble on expression in E. coli
MRCPFCGAEDTSVVDSRISEEGARIRRRRRCVECEKRFTTYETVELRFPQVIKQDGNRVEFNREKLYTSFARALHKRPVPTGQVDAAIERILQKLLGSGVQEISSRTIGEWVMQELYSLDKVAYIRFASVYRSFEDVGDFQEVIREVQSSPQNGDGPSS | not soluble
MRDIVIIGHKAKTSGDFSLNDLPGSAGRMDILCRCVSSALFLSFGMRRDVNVHLLLLGEPDPGKIIRFEGLHLRYLNPDERSSGSLIQKALLKNAAGQDIRSTPGVWTRTGDLNSLLASFEGRTLLYLREDGKDFREIAREIQDPVFILGDHTGVTEEEEKQLLEAGAQVISVGPISLHSNHCITLIHNELDRAEAERGEIPGGNISRPED | not soluble
MREAMYWKPLGDGRVRCELCPLRCIIDEGKRGSCKIRINKGGKLYTLNYGKVSSIALDPIEKKPLFHFWPGSCALSIGTVGCNMHCKHCQNWEISQADESFPYLQDATPEAIVSLAKHYECESIAYTYNEPTIWYEFVLDTAKLARKEGLNNILVTNGYINEEPFRELAPYIDAMNIDIKAFDDKFYMKIASVPSGEPSRRIAEIAKKEFKIHVELTYLIIPTLNDKEEEIREFARWVVENLGDDTPVHFSRFFPHYKLLNLPPTPIETLEKAYKIAKEEGLKFVYLGNVPGHPGENTYCPSCGKLLIERWGFDIIRYDIVDGKCKYCGEKIPIVGKYQKKKYRGMWW | soluble
MREIINKLNPIIIDKADKKFGVSRILKKYDGKPVYIKDVNGFEVVGNLCSRETLSKIFNVKKEDFIFFMLDAMEKEKEGKLKINNKLKEKYIVEIPENIKNWPIPIYYEKDAGAYITSGVVVVYDKDYGYNLSIHRILVKDDYLVIRMVEQRHLHFLYNKALKEKGYLDVAIVIGVHPAVLLAGSTSADITFDELKFAAALLGGEIGVFELDNGLLVPEAEFIIEGKILPEVDDEGPFVDITGTYDIVRKQPIIKIEKLYRKEKPIFHALLPGGIEHKTLMGMPQEPRILKGVRNTVPTVKNIVLTEGGCCWLHAVVQIEKRTEGDGKNAILAAFASHPSLKHVIVVDDDINIFDINDVEYAIATRVQGDKDIVIISGAKGSSLDPSSDLKNKLTAKVGVDATMSLIKGREHFERAKIPDKLEHHHHHH | soluble
MREKELKHIENLLLLKVKKEKIEETDKIKEYLKRFEDERRFDGIKESTIKSDLDRLRVFLDYCINYLGKNPEELKTSDFVKFFNYLDTVRKVSKSSQRKYFLLLKVFYRVLRMYNVIQEFVEESKDRKRFARIEIQHYDAVDAEMLNMILKKIIESGSRTRIRDALIIRLLWDTGCRVSEVLNLKYKDCDLDNGIFKIRNTKTHEERTVVCSSDTLELLRNYVQFNVRQGSDDYLFQNSQGGRVRKEWISEVFRKAVNELKEEGKIPKNRRIVIHSIRHGRAVDLLNKGVPIDIVKEYLGHKSMNTTLIYAHSKERAESLEFIKKLLRIQ | not soluble
MREYKVVVLGSGGVGKSALTVQFVTGTFIEKYDPTIEDFYRKEIEVDSSPSVLEILDTAGTEQFASMRDLYIKNGQGFILVYSLVNQQSFQDIKPMRDQIVRVKRYEKVPLILVGNKVDLEPEREVMSSEGRALAQEWGCPFMETSAKSKSMVDELFAEIVRQMNYSSLPEKQDQCCTTCVVQ | not soluble
MRFAVLGSGSQGNGTLIASGDTFILVDCGFSLRETERRLALLGVSAAQLSAVLVTHEHADHVHGVGLLSRRYNVPVYLSQGTLRGMRKPVEVAGFLACGQSLHIGSLEVTAARVEHDAYEPLQYVVSDGKRRFGMLTDLGSYDALLLERYQGLDALLIEANHCRDLLARGHYPAFLKQRVGGMQGHLNNHQAARLVHELGWNNLQHLVLAHLSSKNNLPHLARQCFVDTLGCDPDWLQVANQEHGLDWREIALEHHHHHH | soluble
MRFAVLGSGSRGNGTLVASNDTYVLVDCGFSLRETERRLARLGVAASQLSAILVTHEHADHVHGVGLLSRRYNVPVYLSSGTLRGMRKPVEVAGLLAGGESLQIGALDIDVVSVAHDALEPTQFVFSDGSRRFGLLTDLGSYCSNVLQRYQGLDALMIEANHCRDMLARGQYPVFLKQRVGCETGHLNNHQAASLVSELGWQDLQHLVLAHLSSKNNLPHLARQCFVDTLGCDPDWLQLADQDSGLDWRHIALEHHHHHH | not soluble
MRGFLKFAILAAVLLALAYGDDEDEEASELERRRIRNCPEVTFKRMTGCVWEFGRFLKKVLFLDLEQRTLDRFRKSCLSMAECFDLIECKETGKFSRGKRIKDSCDVMNYLSKDFVPCLKRLERLDPAPTCFNKWKPFSDLNEVGPDTTPEEMEELCKNMLGKDNCMKDLVSRTCGGVMSQELVDRFEATSVFKQCDAD | not soluble
MRGSHHHHHHGMASMTGGQQMGRDLYDDDDKDRWIRTGGYQPTLWDFSTIQSFDSEYKEEKHLMRAAGMIDQVKMMLQEEVDSIRRLELIDDLRRLGISCHFEREIVEILNSKYYTNNEIDERDLYSTALRFRLLRQYDFSVSQEVFDCFKNAKGTDFKPSLVDDTRGLLQLYEASFLSAQGEETLRLARDFATKFLQKRVLVDKDINLLSSIERALELPTHWRVQMPNARSFIDAYKRRPDMNPTVLELAKLDFNMVQAQFQQELKEASRWWNSTGLVHELPFVRDRIVECYYWTTGVVERRQHGYERIMLTKINALVTTIDDVFDIYGTLEELQLFTTAIQRWDIESMKQLPPYMQICYLALFNFVNEMAYDTLRDKGFDSTPYLRKVWVGLIESYLIEAKWYYKGHKPSLEEYMKNSWISIGGIPILSHLFFRLTDSIEEEAAESMHKYHDIVRASCTILRLADDMGTSLDEVERGDVPKSVQCYMNEKNASEEEAREHVRSLIDQTWKMMNKEMMTSSFSKYFVEVSANLARMAQWIYQHESDGFGMQHSLVNKMLRDLLFHRYE | soluble
MRGSHHHHHHGSEYPERPVNMVVPFAAGGPTDNVARSLAESMRPTLGETVVVENKGGAGGTIGTTQVARAQPDGYSILLMHAGFSTAPSLYKNPGYEPYTSFEPIGLVVDVPMTIIARGDFPPNNIKELAEYVKKNADKISLANAGIGAASHLCGTMLVEALGVNLLTIPYKGTAPAMNDLLGKQVDLMCDQTTNTTQQITSGKVKAYAVTSLKRVPTLPDLPTMDESGYKGFEVGIWHGMWAPKGTPKPVVDKLVKSLQAGLADPKFQERMKQLGAEVLTNEANPEALQAKVKQQVPQWAELFKKAGVEKQ | soluble
MRGSHHHHHHGSMEEYYMKLALDLAKQGEGQTESNPLVGAVVVKDGQIVGMGAHLKYGEAHAEVHAIHMAGAHAEGADIYVTLEPCSHYGKTPPCAELIINSGIKRVFVAMRDPNPLVAGRGISMMKEAGIEVREGILADQAERLNEKFLHFMRTGLPYVTLKAAASLDGKIATSTGDSKWITSEAARQDAQQYRKTHQSILVGVGTVKADNPSLTCRLPNVTKQPVRVILDTVLSIPEDAKVICDQIAPTWIFTTARADEEKKKRLSAFGVNIFTLETERIQIPDVLKILAEEGIMSVYVEGGSAVHGSFVKEGCFQEIIFYFAPKLIGGTHAPSLISGEGFQSMKDVPLLQFTDITQIGRDIKLTAKPTKE | soluble
MRGSHHHHHHGSMSQPDATPFDYILSGGTVIDGTNAPGRLADVGVRGDRIAAVGDLSASSARRRIDVAGKVVSPGFIDSHTHDDNYLLKHRDMTPKISQGVTTVVTGNCGISLAPLAHANPPAPLDLLDEGGSFRFARFSDYLEALRAAPPAVNAACMVGHSTLRAAVMPDLRREATADEIQAMQALADDALASGAIGISTGAFYPPAAHASTEEIIEVCRPLITHGGVYATHMRDEGEHIVQALEETFRIGRELDVPVVISHHKVMGKLNFGRSKETLALIEAAMASQDVSLDAYPYVAGSTMLKQDRVLLAGRTLITWCKPYPELSGRDLEEIAAERGKSKYDVVPELQPAGAIYFMMDEPDVQRILAFGPTMIGSDGLPHDERPHPRLWGTFPRVLGHYSRDLGLFPLETAVWKMTGLTAAKFGLAERGQVQPGYYADLVVFDPATVADSATFEHPTERAAGIHSVYVNGAAVWEDQSFTGQHAGRVLNRAGA | soluble
MRGSHHHHHHLVPRGSVQVISSYDQFKQVTGGDKVVVIDFWATWCGPCKMIGPVFEKISDTPAGDKVGFYKVDVDEQSQIAQEVGIRAMPTFVFFKNGQKIDTVVGADPSKLQAAITQHSA | soluble
MRGSHHHHHHTDPALRAPIIQSVERALQILDLFNEQATELKITDISKLMGLSKSTLHSLLKTLQLHGYIDQNPENGKYRLGMKLVERGHFVVGSIDIRQKAKGWLTELSRRTGQTTHLGILDGREGVYIEKIEGKLAAIAYSRIGRRLPVHATAIGKVLIAWLGEAELNALLEGYQYTTFTPATLASREALMSALAQTREQGYALDSEENEQGVRCVAVPVWNHESRVIAALSLSTLTSRVDDAELANFREQLQQAGLALSRALGYPAGLCGR | soluble
MRGSHHHHHHTDPALRASVKVIVTDMDGTFLNDAKTYNQPRFMAQYQELKKRGIKFVVASGNQYYQLISFFPELKDEISFVAENGALVYEHGKQLFHGELTRHESRIVIGELLKDKQLNFVACGLQSAYVSENAPEAFVALMAKHYHRLKPVKDYQEIDDVLFKFSLNLPDEQIPLVIDKLHVALDGIMKPVTSGFGFIDLIIPGLHKANGISRLLKRWDLSPQNVVAIGDSGNDAEMLKMARYSFAMGNAAENIKQIARYATDDNNHEGALNVIQAVLDNTSPFNSGLCGR | soluble
MRGTDMAKQQMNIKIKKGEQFPVTIQRIGINGEGVGYFQKQVVFVPGALPGEEVIVEATDIHPTYAEAKIKRIRKRSPNRIKPPCPLYDQCGGCQLQHLSYEAQLEAKRDIVIQALRRHARRLDVDKLDIRPTIGMDNPWHYRNKSQFQVGMKEGKVLAGLYGINSHRLIDLSECRVQHPQTTRVTNIVKTILQDLRIPIYNERTRTGVVRTIVVRVGFHTGDIQLVLVTATKDIPRKQLLIDEIRRRLPEVKSIVQNINGEKTSLIFGDETEVLAGDEYIQETLGDLSFELSSRAFFQLNPLQTVKLYDEVKKAAALTGTERIVDAYCGVGTIGLWLARDAKEVRGMDTIPEAIEDAQNNAKKHGFTNTHYVVGKAEYWLPKWVKGGWKPDVIIVDPPRVGCDRALLETILHVRPKTVVYVSCNPSSLARDLDALAAQYRVDYIQPVDMFPHTAHVECVAKVRLEL | not soluble
MRICSDQPCIVLLTEKDVWIRVNGKEPISLKANHMALLNCENNIIDVSSLNNTLVAHISHDIIKDYLRFLNKDLSQIPVWQRSATPILTLPCLTPDVFRVAAQHSMMPAETESEKERTRALLFTVLSRFLDSKKFVSLMMYMLRNCVSDSVYQIIESDIHKDWNLSMVASCLCLSPSLLKKKLKSENTSYSQIITTCRMRYAVNELMMDGKNISQVSQSCGYNSTSYFISVFKDFYGMTPLHYVSQHRERTVA | soluble
MRIEVRLFALYREQAGTDRLALELPEGARVREAQKALEERFPRLRLEGGMAAVNQALAGAETPLKEGDEVAFLPPVSGGQDSYGLTQEPLDLEALVAWATAPEYGAVVSFLGTTRSPNRGEEVAFLEYEAYPEMAEKVMAEILAEMRARWPLGRIALWHRLGRVDPGEASIAIVVSARHRKEAFAACQYAIDRVKQILPVWKKEHRKDGSFWVEGFAPEDKRL | soluble
MRILADENIPVVDAFFADQGSIRRLPGRAIDRAALAEVDVLLVRSVTEVSRAALAGSPVRFVGTCTIGTDHLDLDYFAEAGIAWSSAPGCNARGVVDYVLGCLLAMAEVRGADLAERTYGVVGAGQVGGRLVEVLRGLGWKVLVCDPPRQAREPDGEFVSLERLLAEADVISLHTPLNRDGEHPTRHLLDEPRLAALRPGTWLVNASRGAVVDNQALRRLLEGGADLEVALDVWEGEPQADPELAARCLIATPHIAGYSLEGKLRGTAQIYQAYCAWRGIAERVSLQDVLPETWLAGLQLNPGCDPAWALATLCRAVYDPRSDDAAFRRSLTGDSATRRAAFDALRKHYPPRREITGLRVATGGQAELQRVVRALGAQLV | soluble

Source: the DeepSol protein solubility set
